Assay results published in patent US9926377B2, “Anti-GPC3 antibodies and immunoconjugates” (GENENTECH, INC., priority 2014, dated 2018).

T1: human GPC3 (Homo sapiens, UniProt P51654)
T1 construct: C-terminal glycophosphatidylinositol anchor (GPI link) (C); expressed in transfected cells; host or cells: 293S cells, transient
T1 sequence (P51654 359-560): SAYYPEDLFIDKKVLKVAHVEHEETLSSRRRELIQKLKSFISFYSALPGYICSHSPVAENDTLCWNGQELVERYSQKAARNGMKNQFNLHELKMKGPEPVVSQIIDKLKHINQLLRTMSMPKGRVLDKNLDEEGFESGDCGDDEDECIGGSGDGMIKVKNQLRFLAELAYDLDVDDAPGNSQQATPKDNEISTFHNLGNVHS

B1: 7H1: anti-GPC3 monoclonal antibody; heavy and light chain variable regions SEQ ID NOs: 2 and 3 (antibody, V domains shown)
VH: QVQLQQSGPELVKPGASVKISCKASGYTFTDYYINWVKQKPGQGLEWIGWIYPGSGHTECNETFKGKATLTVDTSSSTAYMQLSSLTSEDTAVYFCTRGYYAPMGYFDYWGQGTTLTVSS
VL: DIQMTQSPSSLSASLGERVSLTCRASQEISGYLSWLQQKPDGTIKRLIYAASTLDSGVPKRFSGSRSGSDYSLTISGLESEDFADYYCLQYASYPYTFGGGTKLEIK
B2: 4G7: anti-GPC3 monoclonal antibody; heavy and light chain variable regions SEQ ID NOs: 26 and 27 (antibody, V domains shown)
VH: EVQLQQSGTVLARPGASVKMSCKASGYTFTSYWVHWVKQRPGQGLEWIGAIYPGNIDASYNQKFKGKAKLTAVTSTSTAYMELSSLTNEDSAVYYCSYDYDAWFVYWGQGTLVTVSA
VL: DIQMTQSHKFMSTSVGDRVSITCKASQDVSTAVAWYQQKPGQSPTLLIYSASYRYTGVPDRFTGSGSGTDFTFTISSVQAEDLAVYYCQQHYFTPRTFGGGTKLELK

Legend:
cynomolgus monkey GPC3 = assay: Western blot detection of cynomolgus monkey GPC3; type: binding
From the text: (§1) Antibody 7H1 also detects human, cynomolgus monkey, rat, and mouse GPC3 by Western blot.

mouse GPC3 = mouse GPC3 (Mus musculus, UniProt Q8CFZ4); assay: Western blot detection of mouse GPC3; type: binding
From the text: as §1

GPC3 [1] = molecular target: T2, GPC3 (Homo sapiens, UniProt P51654); assay: Reactivity by immunohistochemistry (IHC); type: binding; design: endogenous in cells
From the text: (§2) Positive clones were expanded and re-screened for binding to huGPC3, cynoGPC3, and HepG2 cells by ELISA, FACS, and immunohistochemistry (IHC). Thirteen antibodies were selected and purified, including antibodies 7H1 and 4G7. The heavy and light chain variable region sequences of antibody 7H1 are shown in SEQ ID NOs: 2 and 3, respectively. The heavy and light chain variable region sequences of antibody 4G7 are shown in SEQ ID NOs: 26 and 27, respectively.
as §1
Target sequence in this assay (P51654 25-554): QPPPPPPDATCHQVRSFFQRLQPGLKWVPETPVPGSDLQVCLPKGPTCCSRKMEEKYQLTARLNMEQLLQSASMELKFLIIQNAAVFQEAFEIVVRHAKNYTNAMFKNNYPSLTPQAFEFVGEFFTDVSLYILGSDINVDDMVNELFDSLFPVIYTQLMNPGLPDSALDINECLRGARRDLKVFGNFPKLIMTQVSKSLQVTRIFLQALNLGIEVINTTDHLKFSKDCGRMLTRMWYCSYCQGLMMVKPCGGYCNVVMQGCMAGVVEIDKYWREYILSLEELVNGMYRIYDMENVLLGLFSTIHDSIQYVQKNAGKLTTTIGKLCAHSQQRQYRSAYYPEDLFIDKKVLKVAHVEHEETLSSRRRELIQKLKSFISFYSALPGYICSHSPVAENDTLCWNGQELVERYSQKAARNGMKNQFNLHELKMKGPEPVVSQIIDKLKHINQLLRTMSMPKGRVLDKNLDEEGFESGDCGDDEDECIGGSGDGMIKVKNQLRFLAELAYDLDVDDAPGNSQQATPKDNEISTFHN

biotinylated GPC3 = biotinylated GPC3 (Homo sapiens, UniProt P51654); assay: Epitope binning competition assay (Octet RED384); type: binding; details: 7H1 or 4G7 as first saturating antibody 10 μg/ml; competing antibodies 5 μg/ml
Procedure: Epitope binning of anti-GPC3 antibodies was performed using a competition assay. Using the Octet RED384 instrument (ForteBio), biotinylated GPC3 was captured onto Streptavidin biosensors at 10 μg/ml for 600 seconds. Binding of the first antibody to saturation was achieved by adding 10 μg/ml for 600 seconds. The same biosensors were dipped into the competing antibodies at 5 μg/ml and binding was measured for 600 seconds. […] Antibody 7H1 was used as the first saturating antibody. A subsequent experiment was performed using antibody 4G7 as the first saturating antibody.

GPC3 [2] = molecular target: T2, GPC3; assay: Western blot detection of human GPC3; type: binding
From the text: as §1
Target sequence in this assay (P51654 25-554): as above

GPC3 [3] = molecular target: T2, GPC3; assay: Western blot binding to C-terminal truncation constructs of human GPC3; design: C-terminal glycophosphatidylinositol anchor (GPI link) (C); expressed in transfected cells; host or cells: 293S cells, transient
From the text: (§3) C-terminal truncation constructs of human GPC3 were made to further refine the epitopes for antibodies 7H1 and 4G7. […] The three C-terminal truncations each comprised the GPC N-terminal signal sequence (SS) and C-terminal glycophosphatidylinositol anchor (GPI link). […] See FIG. 7 (Santa Cruz Biotechnology antibody 1G12, which was raised to amino acids 511-580 of human GPC3, was used as a positive control for C-terminal fragment binding). Antibody 7H1 was reformatted as a chimeric antibody with human A118C cysteine-engineered IgG1 and Igκ constant regions (SEQ ID NOs: 42 and 43).

rat GPC3 = rat GPC3 (Rattus norvegicus, UniProt P13265); assay: Western blot detection of rat GPC3; type: binding
From the text: as §1

GPC3 [4] = molecular target: T2, GPC3; assay: FACS binding to human GPC3 fragments expressed on 293S cells; design: C-terminal glycophosphatidylinositol anchor (GPI link) (C); expressed in transfected cells; host or cells: 293S cells, transient
From the text: as §3

GPC3 [5] = molecular target: T2, GPC3; assay: Binding to GPC3-expressing cells by FACS; design: endogenous in cells
From the text: as §2, §1
Target sequence in this assay (P51654 25-554): as above

human GPC3 = molecular target: T1, human GPC3; assay: FACS binding to human GPC3 fragments expressed on 293S cells; details: C-terminal fragment, amino acids 359-560 of human GPC3, on 293S cells
From the text: as §3

[6] = N-terminal fragment, amino acids 25 to 358 of human GPC3, on 293S cells

Sequence of biotinylated GPC3 (P51654 25-554): as above
Sequence of rat GPC3 (P13265 with tags, fused parts or gaps limits assumed): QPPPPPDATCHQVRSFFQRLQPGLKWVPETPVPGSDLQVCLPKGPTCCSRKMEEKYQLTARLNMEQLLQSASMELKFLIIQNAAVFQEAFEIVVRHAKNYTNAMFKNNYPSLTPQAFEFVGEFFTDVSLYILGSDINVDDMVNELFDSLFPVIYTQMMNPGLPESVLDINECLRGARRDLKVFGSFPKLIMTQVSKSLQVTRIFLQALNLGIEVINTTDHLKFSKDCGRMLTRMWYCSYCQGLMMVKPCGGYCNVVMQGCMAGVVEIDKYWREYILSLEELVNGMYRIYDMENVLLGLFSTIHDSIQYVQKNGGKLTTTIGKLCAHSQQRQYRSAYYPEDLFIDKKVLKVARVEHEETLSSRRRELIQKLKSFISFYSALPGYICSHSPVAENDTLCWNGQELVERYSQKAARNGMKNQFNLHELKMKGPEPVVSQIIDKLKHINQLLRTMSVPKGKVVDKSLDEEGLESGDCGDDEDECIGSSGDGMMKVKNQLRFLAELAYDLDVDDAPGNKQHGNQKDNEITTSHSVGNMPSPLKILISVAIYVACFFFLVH
Sequence of cynomolgus monkey GPC3 (as listed by the source): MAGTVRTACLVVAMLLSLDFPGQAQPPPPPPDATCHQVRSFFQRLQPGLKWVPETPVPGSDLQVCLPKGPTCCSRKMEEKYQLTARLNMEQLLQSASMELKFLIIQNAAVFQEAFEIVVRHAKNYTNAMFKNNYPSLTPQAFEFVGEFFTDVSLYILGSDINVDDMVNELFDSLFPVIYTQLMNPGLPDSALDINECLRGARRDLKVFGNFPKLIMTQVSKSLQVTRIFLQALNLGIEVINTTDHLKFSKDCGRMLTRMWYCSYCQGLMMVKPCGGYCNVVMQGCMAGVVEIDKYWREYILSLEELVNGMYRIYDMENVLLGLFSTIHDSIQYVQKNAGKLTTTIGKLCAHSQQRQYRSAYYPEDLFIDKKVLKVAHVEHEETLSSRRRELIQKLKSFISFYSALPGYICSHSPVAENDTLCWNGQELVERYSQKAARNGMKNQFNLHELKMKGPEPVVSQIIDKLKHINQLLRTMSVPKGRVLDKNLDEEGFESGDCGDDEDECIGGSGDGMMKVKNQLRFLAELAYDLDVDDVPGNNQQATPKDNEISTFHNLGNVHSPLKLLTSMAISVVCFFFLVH
Sequence of mouse GPC3 (Q8CFZ4 25-553): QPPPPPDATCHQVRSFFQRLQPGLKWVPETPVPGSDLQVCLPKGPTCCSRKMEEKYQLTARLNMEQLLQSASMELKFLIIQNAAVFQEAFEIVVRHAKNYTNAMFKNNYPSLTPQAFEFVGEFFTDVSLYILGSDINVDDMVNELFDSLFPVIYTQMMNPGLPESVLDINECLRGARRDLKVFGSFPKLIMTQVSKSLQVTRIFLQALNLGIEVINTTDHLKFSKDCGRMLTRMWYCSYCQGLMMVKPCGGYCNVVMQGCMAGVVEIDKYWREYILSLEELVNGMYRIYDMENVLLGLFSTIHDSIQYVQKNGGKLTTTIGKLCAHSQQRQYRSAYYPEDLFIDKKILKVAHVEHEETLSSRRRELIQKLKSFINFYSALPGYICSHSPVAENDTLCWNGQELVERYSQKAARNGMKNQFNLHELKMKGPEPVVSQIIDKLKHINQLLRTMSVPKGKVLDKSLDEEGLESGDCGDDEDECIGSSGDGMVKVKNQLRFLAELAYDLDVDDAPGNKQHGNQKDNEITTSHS

Molecule | Detection by Western blot (cynomolgus monkey GPC3) | Detection by Western blot (mouse GPC3) | Reactivity by IHC (GPC3 [1]; HepG2 cells) | Reactivity by IHC (GPC3 [1]; JHH cells) | Reactivity by IHC (GPC3 [1]; cells stably transfected with GPC3) | Reactivity by IHC (GPC3 [1]; hepatic cancer tissue microarray) | Epitope bin (biotinylated GPC3) | Detection by Western blot (GPC3 [2]) | Binding by Western blot (GPC3 [3]; amino acids 25 to 137 of human GPC3) | Binding by Western blot (GPC3 [3]; amino acids 25 to 247 of human GPC3) | Binding by Western blot (GPC3 [3]; amino acids 25 to 358 of human GPC3) | Detection by Western blot (rat GPC3) | Binding by FACS (GPC3 [4]; [6]) | Binding by FACS (GPC3 [4]; amino acids 25 to 137 of human GPC3, transiently expressed on 293S cells) | Binding by FACS (GPC3 [4]; amino acids 25 to 247 of human GPC3, transiently expressed on 293S cells) | Reactivity by FACS (GPC3 [5]; 293S cells expressing GPC3) | Reactivity by FACS (GPC3 [5]; HepG2 X1 cells) | Binding by FACS (human GPC3)
B1 | detects | detects | react strongly | react strongly | react strongly | react strongly | different epitope bins | detects | bind | bind | bind | detects | bind | bind | bind | react strongly | react strongly | 
B2 |  |  |  |  |  |  | different epitope bins |  |  |  |  |  | did not show significant binding |  |  | react strongly | react strongly | did not show significant binding
